B1: THAP1; numbered along this chain (parent)
chain: MVQSCSAYGCKNRYDKDKPVSFHKFPLTRPSLCKEWEAAVRRKNFKPTKYSSICSEHFTPDCFKRECNNKLLKENAVPTIFLCTEPHDKKEDLLEPQEQLPPPPLPPPVSQVDAAIGLLMPPLQTPVNLSVFCDHNYTVEDTMHQRKRIHQLEQQVEKLRKKLKTAQQRCRRQERQLEKLKEVVHFQKEKDDVSERGYVILPNDYFEIVEVPA

Variants of: B1
Assay: THAP1 transcriptional activity (GFP+/GFP- enrichment relative to wild-type constructs) (ratio to WT); higher = more THAP1 activity (PSMB5 reporter activation)
Settings: with PSMB5 promoter-GFP reporter
In short: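 Variants were counted by Illumina sequencing of genomic DNA amplicons from BFP+ cells sorted into GFP-bright and GFP-dim bins five days after lentiviral transduction, in duplicate at MOI ~0.3. The library changed each of residues 2–213 of human THAP1 to all 20 amino acids and was introduced into THAP1-knockout HEK-293T cells with mClover3 knocked in at endogenous PSMB5. Activity equals the replicate-mean bright/dim read fold change over the mean of wild-type synonymous constructs.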

| Variant | THAP1 transcriptional activity |
| --- | --- |
| P122S | 0.627 |
| Y14E | 0.0718 |
| Y14H | 0.106 |
| L72N | 0.129 |
| C10T | 0.0641 |
| P126N | 0.551 |
| E189Q | 1.11 |
| E189V | 0.53 |
| E189P | 0.761 |
| T28W | 0.188 |
| E182R | 1.04 |
| E182S | 0.933 |
| E182P | 0.778 |
| E182W | 0.66 |
| L100C | 0.796 |
| L100M | 2.37 |
| L100Q | 1.41 |
| E174T | 0.836 |
| E174H | 0.817 |
| E174L | 1.03 |
| I53Q | 0.0507 |
| I53P | 0.0932 |
| I53T | 0.111 |
| I116R | 0.984 |

| Variant | THAP1 transcriptional activity |
| --- | --- |
| I116N | 0.988 |
| I116K | 0.886 |
| K49T | 0.138 |
| F206Q | 0.86 |
| F206T | 1.04 |
| E178S | 1.45 |
| Q145A | 1.08 |
| H135L | 0.0852 |
| H135Y | 0.217 |
| H135M | 0.0946 |
| D113C | 0.573 |
| D113N | 0.681 |
| R172P | 0.241 |
| I200L | 1.27 |
| I200K | 0.283 |
| A166T | 0.965 |
| C133W | 2.31 |
| C133N | 1.15 |
| C133V | 2.05 |
| C133P | 0.267 |
| C5G | 0.131 |
| D134N | 0.121 |
| D134M | 0.159 |
| D134G | 0.148 |

| Variant | THAP1 transcriptional activity |
| --- | --- |
| D134Y | 0.166 |
| F58Q | 0.0792 |
| R148L | 0.312 |
| R148D | 0.202 |
| T79H | 0.293 |
| T79Y | 0.151 |
| T79V | 0.326 |
| T79L | 0.628 |
| L71G | 0.187 |
| V77S | 0.41 |
| V77F | 0.325 |
| V77M | 0.439 |
| G9N | 0.241 |
| Q187W | 0.568 |
| F81N | 0.75 |
| R171L | 0.314 |
| K181M | 0.542 |
| K181V | 0.316 |
| T142K | 0.964 |
| T142L | 0.587 |
| T142Q | 0.756 |
| Q176P | 0.259 |
| P121Y | 0.185 |
| P121R | 0.501 |

| Variant | THAP1 transcriptional activity |
| --- | --- |
| K73D | 0.191 |
| K73H | 0.598 |
| L105F | 0.955 |
| T84L | 1.48 |
| T84C | 0.907 |
| V183T | 1.02 |
| A115G | 0.474 |
| A115Q | 0.738 |
| A213D | 0.729 |
| A213L | 0.907 |
| E195H | 0.381 |
| E195D | 1.15 |
| L163W | 0.188 |
| K164V | 0.218 |
| Q173W | 0.284 |
| K43I | 0.615 |
| K43P | 0.957 |
| P104F | 0.865 |
| P104K | 1.14 |
| P104S | 2.12 |
| P104C | 0.986 |
| P108Q | 1.31 |
| P108K | 0.9 |
| P212E | 0.535 |

| Variant | THAP1 transcriptional activity |
| --- | --- |
| P212F | 0.548 |
| L159C | 0.151 |
| S55H | 0.0394 |
| S55E | 0.127 |
| K162F | 0.177 |
| K162N | 0.185 |
| K162G | 0.11 |
| S130W | 0.276 |
| S130K | 0.625 |
| S130R | 0.271 |
| S130L | 0.324 |
| S130C | 0.265 |
| S130A | 0.566 |
| K34N | 0.391 |
| K34E | 0.59 |
| K34R | 0.841 |
| K34I | 0.528 |
| K34Q | 0.971 |
| K34A | 0.749 |
| A114E | 0.768 |
| A114K | 0.546 |
| N128I | 0.201 |
| N128Y | 0.306 |
| N128D | 0.549 |

| Variant | THAP1 transcriptional activity |
| --- | --- |
| L27R | 0.23 |
| L27A | 0.142 |
| L27V | 0.488 |
| L27G | 0.0873 |
| L27M | 0.41 |
| S194E | 1.11 |
| P107M | 1.29 |
| K11C | 0.369 |
| Q151G | 0.864 |
| Q151R | 1.12 |
| S52Q | 0.261 |
| S52H | 0.251 |
| E210V | 1.06 |
| R169D | 0.239 |
| R169L | 0.45 |
| N68F | 0.0942 |
| N68I | 0.15 |
| D17N | 0.707 |
| D17S | 1.49 |
| D17E | 0.889 |
| L180R | 0.417 |
| L180Y | 0.439 |
| G197R | 0.711 |
| G197P | 0.913 |

| Variant | THAP1 transcriptional activity |
| --- | --- |
| E66C | 1.21 |
| K179A | 0.727 |
| K179Q | 0.656 |
| D204T | 1.04 |
| D204L | 1.04 |
| Y205C | 1.28 |
| Y205H | 1.38 |
| C62W | 0.113 |
| E98A | 1.51 |
| K18E | 0.152 |
| K18H | 0.202 |
| Q97R | 0.945 |
| P102M | 0.907 |
| T138Y | 0.424 |
| T138L | 0.13 |
| L201Y | 0.773 |
| L201N | 0.624 |
| L201S | 0.906 |
| L201C | 1.03 |
| L201P | 0.855 |
| E56L | 0.526 |
| A38V | 0.684 |
| A38E | 0.41 |

— the supplement of paper PMC11811203
